{
  "source": "patent US20260258115A1",
  "about": "(MAPP BIOPHARMACEUTICAL, published 2026)",
  "key": {"[1]": {"molecular_target": "RSV F on RSV-A2 virus (Respiratory syncytial virus, RSV-A2, UniProt P03420 26-574)", "assay": "cell-based or functional assay"}, "[2]": {"molecular_target": "RSV prefusion F (preF), DS-Cav1 (Respiratory syncytial virus, UniProt P03420 26-513)", "assay": "BLI, IgG on anti-human IgG sensor, 100 nM antigen"}, "[3]": {"molecular_target": "RSV postfusion F (postF), F ΔFP (Respiratory syncytial virus, UniProt P03420 26-513)", "assay": "BLI, IgG on anti-human IgG sensor, 100 nM antigen"}},
  "data": [
    {"binder": "ADI-41558 (antibody, V domains shown, also called Ab 840; Antibody Number 840) VH: EVQLLESGGGLVKPGGSLRLSCEVSGFPFSDYYVSWIRQAPGKGLEWLSYSSRGGIYTNYADSVKGRFTISRDNDKNSLFLQMNSLRAEDTAVYYCARDRSDIWSGRVGFDYWGQGTLVTVSS VL: DIVMTQSPATLSLSPGERATLSCRASQSVSSSYLAWYQQKPGQAPRLLIYGASSRATGIPDRFSGSGSGTDFTLTISRLEPEDFAVYYCQQYNKSPPGYIFGPGTKVDIK", "values": [
      {"measurement": "Neutralization IC50 (RSV subtype A)", "setting": "[1]", "value": "> 25", "unit": "µg/mL"},
      {"measurement": "Kd", "setting": "[2]", "value": 3.02, "unit": "nM"},
      {"measurement": "Kd", "setting": "[3]", "value": 0.7, "unit": "nM"}
    ]},
    {"binder": "ADI-41781 (antibody, V domains shown) VH: QVQLVQSGAEVRKPGASVKVSCKAFGYTFTNFAISWVRQAPGQGLEWMGWIGPYNGDTDYEQKFQGRVTMTADTSSSTVFMELRSLRFDDTAVYYCARGKGSTIPLGYYIGMDVWGQGTTVTVSS VL: ETTLTQSPSSLSASVGDRVTMTCRASQGISNYLAWYQQKPGKPPKLLIYLASSLQSGVPSRFSGSGSGTDFTLTISSLQPEDVATYYCQKYNSAPLTFGGGTKLEIK", "values": [
      {"measurement": "Neutralization IC50 (RSV subtype A)", "setting": "[1]", "value": "> 25", "unit": "µg/mL"},
      {"measurement": "Kd", "setting": "[2]", "value": 3.46, "unit": "nM"},
      {"measurement": "Kd", "setting": "[3]", "value": 0.653, "unit": "nM"}
    ]},
    {"binder": "ADI-41778 (antibody, V domains shown) VH: QVQLVESGGGQGQPGRSLRLSCAASGFTFDDYAMHWVRQVPGKGLEWVSGINWNSGYIGYADSVKGRFTISRDNAKNSLYLQMNSLRAEDTALYYCAKANNPIDSSGYNRGFDTWGQGTLVTVSS VL: QSALTQPRSVSGSPGQSVTISCTGTSSDVGGYNYVSWYQQHPGKAPKLMIYDVNKRPSGVPDRFSGSKSDNTASLTISGLQAEDESDYFCCSYAGTYTWVFGGGTKVTVL", "values": [
      {"measurement": "Neutralization IC50 (RSV subtype A)", "setting": "[1]", "value": "> 25", "unit": "µg/mL"},
      {"measurement": "Kd", "setting": "[2]", "value": 2.75, "unit": "nM"},
      {"measurement": "Kd", "setting": "[3]", "value": 0.504, "unit": "nM"}
    ]},
    {"binder": "ADI-41557 (antibody, V domains shown, also called Ab 839; Antibody Number 839) VH: EVQLLESGPGLVKPSETLSLTCNVSGGSISSYYWSWIRQSPGKGLEWIGHIYDTGYTNYNPSLKSRVTMSVDTSKNRFSLKLDSVTAADTAVYYCARGRGWRNLYNWFDPWGQGTLVTVSS VL: DIVMTQSPATLSVSPGERATLSCRTSQSFSSMLAWYQQKPGQAPRLLIYGASTRATGIPARFSGSGSATEFTLTISNLQSEDVAVYYCQQYNSWPLTFGGGTKVEIK", "values": [
      {"measurement": "Neutralization IC50 (RSV subtype A)", "setting": "[1]", "value": "> 25", "unit": "µg/mL"},
      {"measurement": "Kd", "setting": "[2]", "value": 30.9, "unit": "nM"},
      {"measurement": "Kd", "setting": "[3]", "value": 86.1, "unit": "nM"}
    ]},
    {"binder": "ADI-41552 (antibody, V domains shown) VH: EVQLLESGGGLVQPGGSLRLSCAASGFTFSPYSMNWVRQAPGKGLEWVSYISRSGSFKYYADSVKGRFTISRDDAKNSLYLHMNSLRDDDTAVYYCVSYCSSATCHQRFDYWGQGTLVTVSS VL: EIVLTQSPATLSLSPGERATLSCRASQSVNSYLAWYQQKPGQAPRLLIYDASNRATGIPARFSGSGSGTDFTLTISSLEPEDFAVYYCQERNSWPKLTFGGGTKVEIK", "values": [
      {"measurement": "Neutralization IC50 (RSV subtype A)", "setting": "[1]", "value": "> 25", "unit": "µg/mL"},
      {"measurement": "Kd", "setting": "[2]", "value": 3.44, "unit": "nM"},
      {"measurement": "Kd", "setting": "[3]", "value": 0.522, "unit": "nM"}
    ]},
    {"binder": "ADI-41811 (antibody, V domains shown) VH: QVQLQQSGPRLVKPSHTLSLTCVISGDSVSSGSAAWSWIRQSPSRGLEWLGRTYYRSKWYYDYAVSVKGRIIIQPDTSKNQFSLQLNSVSPEDTAVYYCARDPDSGNYFHYYGMDVWGQGTTVTVSS VL: DIVMTQSPATLSLSPGERATLSCRASQSVDVYFAWYQQKPGQAPRLLIYDASKRASGVPARFSGSASGTDFTLTISSLEPEDFAVYYCQQRAKWPPYTFGQGTKLEIK", "values": [
      {"measurement": "Neutralization IC50 (RSV subtype A)", "setting": "[1]", "value": "> 25", "unit": "µg/mL"},
      {"measurement": "Kd", "setting": "[2]", "value": 1.64, "unit": "nM"},
      {"measurement": "Kd", "setting": "[3]", "value": 0.744, "unit": "nM"}
    ]},
    {"binder": "ADI-41799 (antibody, V domains shown, also called Ab 910; Antibody Number 910) VH: QVQLVQSGAEVKKPGSSVKVSCQASGGTFSTHALSWVRQTPGHGLEWVGGVLPVFGATKYPRKFQGRVTITADKSTNTAYMELSSLRSDDTAVYYCARVVVHSTITTAKDFFSGVHDIWGQGTMVTVSS VL: DIRMTQSPSTLSASVGDRVTITCRASQTVSSWLAWYQQKPGKAPKLLIYQASSLESGVPSRFSGSGSGTEFTLTISGLQPDDFATYFCQHYNSYSPVTFGGGTKVEIK", "values": [
      {"measurement": "Neutralization IC50 (RSV subtype A)", "setting": "[1]", "value": "> 25", "unit": "µg/mL"},
      {"measurement": "Kd", "setting": "[2]", "value": 3.28, "unit": "nM"},
      {"measurement": "Kd", "setting": "[3]", "value": 1.1, "unit": "nM"}
    ]},
    {"binder": "ADI-41794 (antibody, V domains shown) VH: EVQLQQWGAGLLKPSETLSLTCAVYGGSFSGYYWSWIRQPPGKGLEWIGEINHSGSTNYNPSLKSRVTISVDTSKNQFSLKLSSVTAADTAVYYCARGTRTIVYCDGDCYQPWAYHYYGMDVWGQGTTVTVSS VL: QSVVTQEPSVSAAPGQKVTISCSGGSSNIGNNYVSWYQHLPGTAPKLLIYDNDKRPSGIPDRFSGSKSGTSATLGITGLQTGDEADYYCGTWDSSLSAVVFGGGTKLTVL", "values": [
      {"measurement": "Neutralization IC50 (RSV subtype A)", "setting": "[1]", "value": "> 25", "unit": "µg/mL"},
      {"measurement": "Kd", "setting": "[2]", "value": 3.31, "unit": "nM"},
      {"measurement": "Kd", "setting": "[3]", "value": 3.01, "unit": "nM"}
    ]},
    {"binder": "ADI-41804 (antibody, V domains shown) VH: QVQLQQWGAGLLKPSETLSLTCSVLGGSFSGYYWTWIRQPPGKGLEWIGEITHDGSSNYNPSLNSRVTISVDTSNYQFSLKMRSVTAADTAVYYCARSPDLTIFGGLYFYYGISVWGQGTTVTVSS VL: DIQMTQSPSSLSASMGDRVTITCRASQDISNYLAWYQQKPGKVPNLLIYAASTLQGGVPSRFSGSGSGTDFTLTISSLQPEDVAIYYCQKYKSAPRTFGQGTKVEIK", "values": [
      {"measurement": "Neutralization IC50 (RSV subtype A)", "setting": "[1]", "value": "> 25", "unit": "µg/mL"},
      {"measurement": "Kd", "setting": "[2]", "value": 0.331, "unit": "nM"},
      {"measurement": "Kd", "setting": "[3]", "value": 0.436, "unit": "nM"}
    ]},
    {"binder": "ADI-41808 (antibody, V domains shown, also called Ab 916; Antibody Number 916) VH: QVQLVQSGAELKKPGSSVRISCKVSGVTSDNYAITWVRQAPGQGLEWMGRVIPIFPVPQYAQKFQGRVTLSADKSTRTAYLELHSLRSEDTATYYCATHRPSDSWGQGTLVTVSS VL: DIRVTQSPSTLSASVGDRVTITCRASQNINSWLAWYQQKPGKAPKLLIFKASSLESGVPARFSGSGFGTEFTLTITSLQPDDFASYYCQQYDTYPYPFGQGTKVEIK", "values": [
      {"measurement": "Neutralization IC50 (RSV subtype A)", "setting": "[1]", "value": "> 25", "unit": "µg/mL"},
      {"measurement": "Kd", "setting": "[2]", "value": 13.9, "unit": "nM"},
      {"measurement": "Kd", "setting": "[3]", "value": 22.5, "unit": "nM"}
    ]},
    {"binder": "ADI-41807 (antibody, V domains shown) VH: EVQLLESGPALVKPTQTLTLTCTFSGFSLTTTRMSVSWIRQPPGKALEWLARIDWDDDKYYSTSLKTRLTISKDTSKNQVVLTMTNMDPVDTATYFCARVNVYAANGYYSYYLDYWGQGTLVTVSS VL: DIVMTQTPSSLSASVGDRVTITCRTSQSSSRYLNWYQKEPGKAPRLLIYLASALRSGVPSRFSGSGSGTDFTLTISSLQSEDFATYYCQQTYSIPWTFGQGTKVEIK", "values": [
      {"measurement": "Neutralization IC50 (RSV subtype A)", "setting": "[1]", "value": "> 25", "unit": "µg/mL"},
      {"measurement": "Kd", "setting": "[2]", "value": 1.5, "unit": "nM"},
      {"measurement": "Kd", "setting": "[3]", "value": 1.19, "unit": "nM"}
    ]},
    {"binder": "ADI-41554 (antibody, V domains shown, also called Ab 836; Antibody Number 836) VH: EVQLVESGGGLVQPGGSLRLSCAASGFTFSSYPMNWVRQGPGKGLEWVSSISSSGASPYYADSVKGRFTISRDNSKNTLYLQMNSLRADDTAVYYCAREDYYYYYMDVWGKGTTVTVSS VL: ETTLTQSPSTLSASVGDRVTITCRASESISSWLAWYQQKPGKAPKLLIFKASTVQSGVPSRFSGSGSGTEFTLTISSLQPDDFATYYCQQYNSYLLTFGGGTKVEIK", "values": [
      {"measurement": "Neutralization IC50 (RSV subtype A)", "setting": "[1]", "value": "> 25", "unit": "µg/mL"},
      {"measurement": "Kd", "setting": "[2]", "value": 1.35, "unit": "nM"},
      {"measurement": "Kd", "setting": "[3]", "value": 1.07, "unit": "nM"}
    ]},
    {"binder": "ADI-41803 (antibody, V domains shown, also called Ab 912; Antibody Number 912) VH: RCTLQQWGAGRVKPSETLSLTCAVYRGPFSGYYWSWIRQPPGKGLEWIGEINLGETNPGGSTHYNPSLRSRLSMSIDTSKKQFSLRVNSVTAADTAVYYCTRGPVSRIYDTSGSYSLNYYGMDVWGQGTTVTVSS VL: DIRMTQSPSSLSASVGDRVTITCRASQGIRNDLGWYQQKPGRAPERLIYPASSLQGGVPSRFIASGSGTEFTLTISNLQPEDFATYYCLQHNSYPRTFGQGTKVEIK", "values": [
      {"measurement": "Neutralization IC50 (RSV subtype A)", "setting": "[1]", "value": "> 25", "unit": "µg/mL"},
      {"measurement": "Kd", "setting": "[2]", "value": 1.99, "unit": "nM"},
      {"measurement": "Kd", "setting": "[3]", "value": 0.711, "unit": "nM"}
    ]},
    {"binder": "ADI-41555 (antibody, V domains shown) VH: EVQLVESGPGLVKPSQTLSLTCSVSGGSISSGIHYWSWIRQHPGKGLEWIGYIYYSGSTYYNPSLESRITISVDTSKNQFSLKVSSVTAADTAVYYCARVNRASRMTTFGVANERSIYYFMDVWGKGTTVTVSS VL: ETTLTQSPATLSLSPGERATLSCRATQSVGNYLAWYQQKPGQAPRLLIHDASNRATGIPARFSGSGSGTDFTLTISSLEPEDFAVYYCQLRINWLFTFGPGTKVEIK", "values": [
      {"measurement": "Neutralization IC50 (RSV subtype A)", "setting": "[1]", "value": 25, "unit": "µg/mL"},
      {"measurement": "Kd", "setting": "[2]", "value": 5.69, "unit": "nM"},
      {"measurement": "Kd", "setting": "[3]", "value": 1.12, "unit": "nM"}
    ]}
  ]
}
